Measurements reported in article PMC9424529, “Small molecule mediated inhibition of protein cargo recognition by peroxisomal transport receptor PEX5 is toxic to Trypanosoma” (Scientific Reports, 2022).
Where no end group is shown, it is not given here. The star is where a group is joined. 6FAM = O=C1OC2(c3ccc(O)cc3Oc3cc(O)ccc32)c2cc(C(=O)*)ccc21

T1: TPR domain of T. cruzi PEX5 (347–668) (T. cruzi, UniProt Q4DPQ9 347-668)
T1 construct: PEX5, Trypanosoma cruzi, C-terminal tetratricopeptide repeat (TPR) domain, residues 347-668; codon-optimised synthetic gene in the petHSU vector; The His-SUMO tag was cleaved on the column with dtUD1 protease; also called TcPEX5; TcPEX5 (TPR domain); source: E. coli BL21 (DE3), purified (HiTrap IMAC, on-column tag cleavage, SEC S75); not shown: His6, N-terminal, cleaved
T1 sequence (looked up): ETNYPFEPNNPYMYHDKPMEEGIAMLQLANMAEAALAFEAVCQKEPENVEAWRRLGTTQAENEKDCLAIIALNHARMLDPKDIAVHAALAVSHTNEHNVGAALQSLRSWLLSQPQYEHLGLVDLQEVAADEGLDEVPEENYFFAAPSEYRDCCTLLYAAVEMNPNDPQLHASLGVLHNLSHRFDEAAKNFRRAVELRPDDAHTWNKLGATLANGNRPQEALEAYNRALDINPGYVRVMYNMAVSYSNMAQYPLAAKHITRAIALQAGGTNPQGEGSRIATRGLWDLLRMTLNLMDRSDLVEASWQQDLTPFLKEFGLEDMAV

B1: unlabeled PTS1 peptide (peptide)
peptide: YQSKL
notes: pentapeptide representing PTS1, without the label; also called PTS1 alone; unlabeled PTS peptide
B2: 6-FAM-labelled PTS1 (6-FAM-YQSKL) (peptide)
peptide: 6FAM-YQSKL
notes: pentapeptide representing peroxisomal targeting signal 1 (PTS1); also called 6-FAM-PTS1; FAM-PTS1

How the values were obtained:
[1] = molecular target: T1, TPR domain of T. cruzi PEX5 (347–668); test: fluorescence polarisation; competitive: increasing unlabeled PTS1 added to 30 nM TcPEX5 (f0 = 0.8) and 10 nM 6-FAM-PTS1; Ki by curve fitting; settings: both partners purified
[2] = molecular target: T1, TPR domain of T. cruzi PEX5 (347–668); test: fluorescence polarisation; saturation binding: 10 nM 6-FAM-PTS1 titrated with TcPEX5 (0.1–250 nM); 10 mM Hepes pH 7.5, 100 mM NaCl, 5% DMSO; one-site fit; settings: both partners purified

Binder	Ki [1] [nM]	Kd [2] [nM]
B1	126	
B2		21
